The values below come from article PMC7545097, “Mapping the native interaction surfaces of PREP1 with PBX1 by cross-linking mass-spectrometry and mutagenesis” (Scientific Reports, 2020).

To fix the notation:
B1: N-terminal GST-fused wild-type PREP1 [not stated] / PBX1_(1-430), wild-type recombinant [human] (parent complex)
chain 1: MMATQTLSIDSYQDGQQMQVVTELKTEQDPNCSEPDAEGVSPPPVESQTPMDVDKQAIYRHPLFPLLALLFEKCEQSTQGSEGTTSASFDVDIENFVRKQEKEGKPFFCEDPETDNLMVKAIQVLRIHLLELEKVNELCKDFCSRYIACLKTKMNSETLLSGEPGSPYSPVQSQQIQSAITGTISPQGIVVPASALQQGNVAMATVAGGTVYQPVTVVTPQGQVVTQTLSPGTIRIQNSQLQLQLNQDLSILHQDDGSSKNKRGVLPKHATNVMRSWLFQHIGHPYPTEDEKKQIAAQTNLTLLQVNNWFINARRRILQPMLDSSCSETPKTKKKTAQNRPVQRFWPDSIASGVAQPPPSELTMSEGAVVTITTPVNMNVDSLQSLSSDGATLAVQQVMMAGQSEDESVDSTEEDAGALAPAHISGLVLENSDSLQ
chain 2: MDEQPRLMHSHAGVGMAGHPGLSQHLQDGAGGTEGEGGRKQDIGDILQQIMTITDQSLDEAQARKHALNCHRMKPALFNVLCEIKEKTVLSIRGAQEEEPTDPQLMRLDNMLLAEGVAGPEKGGGSAAAAAAAAASGGAGSDNSVEHSDYRAKLSQIRQIYHTELEKYEQACNEFTTHVMNLLREQSRTRPISPKEIERMVSIIHRKFSSIQMQLKQSTCEAVMILRSRFLDARRKRRNFNKQATEILNEYFYSHLSNPYPSEEAKEELAKKCGITVSQVSNWFGNKRIRYKKNIGKFQEEANIYAAKTAVTATNVSAHGSQANSPSTPNSAGSSSSFNMSNSGDLFMSVQSLNGDSYQGAQVGANVQSQVDTLRHVISQTGGYSDGLAASQMYSPQGISANGGWQDATTPSSVTSPTEGPGSVHSDTSN

The variants in the experiment derive from B1. The experiment is described as follows: TR-FIA; parent: 1; read off a plot.
Turning to chain 1 MMATQTLSIDSYQDGQQMQVVTELKTEQDPNCSEPDAEGVSPPPVESQTPMDVDKQAIYRHPLFPLLALLFEKCEQSTQGSEGTTSASFDVDIENFVRKQEKEGKPFFCEDPETDNLMVKAIQVLRIHLAELEKVNELCKDFCSRYIACLKTKMNSETLLSGEPGSPYSPVQSQQIQSAITGTISPQGIVVPASALQQGNVAMATVAGGTVYQPVTVVTPQGQVVTQTLSPGTIRIQNSQLQLQLNQDLSILHQDDGSSKNKRGVLPKHATNVMRSWLFQHIGHPYPTEDEKKQIAAQTNLTLLQVNNWFINARRRILQPMLDSSCSETPKTKKKTAQNRPVQRFWPDSIASGVAQPPPSELTMSEGAVVTITTPVNMNVDSLQSLSSDGATLAVQQVMMAGQSEDESVDSTEEDAGALAPAHISGLVLENSDSLQ [chain 1 L130A], the ratio to parent is about 0.79. The same measure for chain 1 MMATQTLSIDSYQDGQQMQVVTELKTEQDPNCSEPDAEGVSPPPVESQTPMDVDKQAIYRHPLFPLLALLFEKCEQSTQGSEGTTSASFDVDIENFVRKQEKEGKPFFCEDPETDNLMVKAIQVLRIHLLELEKVNELCKDFCSRYIACLKTKMNSETLLSGEPGSPYSPVQSQQIQSAITGTISPQGIVVPASALQQGNVAMATVAGGTVYQPVTVVTPQGQVVTQTLSPGTIRIQNSQLQLQLNQDLSIAHQDDGSSKNKRGVLPKHATNVMRSWLFQHIGHPYPTEDEKKQIAAQTNLTLLQVNNWFINARRRILQPMLDSSCSETPKTKKKTAQNRPVQRFWPDSIASGVAQPPPSELTMSEGAVVTITTPVNMNVDSLQSLSSDGATLAVQQVMMAGQSEDESVDSTEEDAGALAPAHISGLVLENSDSLQ [chain 1 L252A]: about 0.95. The same measure for chain 1 MMATQTLSIDSYQDGQQMQVVTELKTEQDPNCSEPDAEGVSPPPVESQTPMDVDKQAIYRHPLFPLLALAFEKCEQSTQGSEGTTSASFDVDIENFVRKQEKEGKPFFCEDPETDNLMVKAIQVLRIHLLELEKVNELCKDFCSRYIACLKTKMNSETLLSGEPGSPYSPVQSQQIQSAITGTISPQGIVVPASALQQGNVAMATVAGGTVYQPVTVVTPQGQVVTQTLSPGTIRIQNSQLQLQLNQDLSILHQDDGSSKNKRGVLPKHATNVMRSWLFQHIGHPYPTEDEKKQIAAQTNLTLLQVNNWFINARRRILQPMLDSSCSETPKTKKKTAQNRPVQRFWPDSIASGVAQPPPSELTMSEGAVVTITTPVNMNVDSLQSLSSDGATLAVQQVMMAGQSEDESVDSTEEDAGALAPAHISGLVLENSDSLQ [chain 1 L70A]: about 0.53. The same measure for chain 1 MMATQTLSIDSYQDGQQMQVVTELKTEQDPNCSEPDAEGVSPPPVESQTPMDVDKQAIYRHPLFPLLALLFEKCEQSTQGSEGTTSASFDVDIENFVRKQEKEGKPFFCEDPETDNLMVKAIQVARIHLLELEKVNELCKDFCSRYIACLKTKMNSETLLSGEPGSPYSPVQSQQIQSAITGTISPQGIVVPASALQQGNVAMATVAGGTVYQPVTVVTPQGQVVTQTLSPGTIRIQNSQLQLQLNQDLSILHQDDGSSKNKRGVLPKHATNVMRSWLFQHIGHPYPTEDEKKQIAAQTNLTLLQVNNWFINARRRILQPMLDSSCSETPKTKKKTAQNRPVQRFWPDSIASGVAQPPPSELTMSEGAVVTITTPVNMNVDSLQSLSSDGATLAVQQVMMAGQSEDESVDSTEEDAGALAPAHISGLVLENSDSLQ [chain 1 L125A]: about 0.63; for chain 1 MMATQTLSIDSYQDGQQMQVVTELKTEQDPNCSEPDAEGVSPPPVESQTPMDVDKQAIYRHPLFPLLALLFEKCEQSTQGSEGTTSASFDVDIENFVRKQEKEGKPFFCEDPETDNLMVKAIQVLRIHALELEKVNELCKDFCSRYIACLKTKMNSETLLSGEPGSPYSPVQSQQIQSAITGTISPQGIVVPASALQQGNVAMATVAGGTVYQPVTVVTPQGQVVTQTLSPGTIRIQNSQLQLQLNQDLSILHQDDGSSKNKRGVLPKHATNVMRSWLFQHIGHPYPTEDEKKQIAAQTNLTLLQVNNWFINARRRILQPMLDSSCSETPKTKKKTAQNRPVQRFWPDSIASGVAQPPPSELTMSEGAVVTITTPVNMNVDSLQSLSSDGATLAVQQVMMAGQSEDESVDSTEEDAGALAPAHISGLVLENSDSLQ [chain 1 L129A]: about 0.43; for chain 1 MMATQTLSIDSYQDGQQMQVVTELKTEQDPNCSEPDAEGVSPPPVESQTPMDVDKQAIYRHPLFPALALLFEKCEQSTQGSEGTTSASFDVDIENFVRKQEKEGKPFFCEDPETDNLMVKAIQVLRIHLLELEKVNELCKDFCSRYIACLKTKMNSETLLSGEPGSPYSPVQSQQIQSAITGTISPQGIVVPASALQQGNVAMATVAGGTVYQPVTVVTPQGQVVTQTLSPGTIRIQNSQLQLQLNQDLSILHQDDGSSKNKRGVLPKHATNVMRSWLFQHIGHPYPTEDEKKQIAAQTNLTLLQVNNWFINARRRILQPMLDSSCSETPKTKKKTAQNRPVQRFWPDSIASGVAQPPPSELTMSEGAVVTITTPVNMNVDSLQSLSSDGATLAVQQVMMAGQSEDESVDSTEEDAGALAPAHISGLVLENSDSLQ [chain 1 L66A]: about 0.59.

Take chain 1 MMATQTLSIDSYQDGQQMQVVTELKTEQDPNCSEPDAEGVSPPPVESQTPMDVDKQAIYRHPLFPLLALLFEKCEQSTQGSEGTTSASFDVDIENFVRKQEKEGKPFFCEDPETDNLMVKAIQVLRIHLLELEKVNELCKDFCSRYIACLKTKMNSETLLSGEPGSPYSPVQSQQIQSAITGTISPQGIVVPASALQQGNVAMATVAGGTVYQPVTVVTPQGQVVTQTLSPGTIRIQNSQLQLQANQDLSILHQDDGSSKNKRGVLPKHATNVMRSWLFQHIGHPYPTEDEKKQIAAQTNLTLLQVNNWFINARRRILQPMLDSSCSETPKTKKKTAQNRPVQRFWPDSIASGVAQPPPSELTMSEGAVVTITTPVNMNVDSLQSLSSDGATLAVQQVMMAGQSEDESVDSTEEDAGALAPAHISGLVLENSDSLQ [chain 1 L245A]: the ratio to parent is about 1.
